Laboratory results reported in patent US20210277109A1 (SYSTIMMUNE, published 2021).

B1: 323D10 chimeric rabbit/human IgG antibody (antibody, V domains shown)
VH: QSVEESGGRLVTPGTPLTLTCTVSGFSLSRNAMNWVRQAPGKGLEYIGYISTSGTTFYANWVKGRFTISKTSTTVDLKMTSLTTEDTATYFCARDYNYAMDIWGQGTLVTVSS
VL: AIDLTQTPASVEAAVGGTITINCQASESISSWLAWYQQKPGQRPKLLIYETSKLASGVPPRFSGSGSGTQFTLTISGVQCDDAATYYCQSYYRINNIGYDNAFGGGTEVEFKR
notes: Rabbit variable regions on human gamma-1 and human kappa constant domains
B2: 324C6 chimeric rabbit/human IgG antibody (antibody, V domains shown)
VH: QSLEESGGRLVTPGTPLTLTCTASGFSLSRYYMTWVRQAPGKGLEWIGTIYTSGSTWYASWTKGRFTISKTSTTVDLKITSPTTEDTATYFCARSYYGGDKTGLGIWGPGTLVTVSS
VL: DVVMTQTPASVEAAVGGTVTIKCQASQSIDSWLSWYQQKPGQPPKLLIYQASTLASGVSSRFKGSGSGTEFTLTISDLECADAATYYCQCAYGVSGTSSYLYTFGGGTEVEVKR
notes: as for B1
B3: 324E2 chimeric rabbit/human IgG antibody (antibody, V domains shown)
VH: QSVEESGGRLVTPGTPLTLTCTVSGFSLSNNAITWVRQAPGKGLEYIGIISSSGTTYYASWAKGRFTISKTSSTTVDLKMTSLTTEDTATYFCAGAFSVWGPGTLVTVSS
VL: AQVLTQTPSSVSAAVGGTVTINCQSSQSVNNNDLAWFQQKPGQPPKRLIYWASKLASGVPSRFKGSGSGTQFILTISDLECDDAATYYCAGGYSGNIYGFGGGTEVEVKR
notes: as for B1
B4: 338H4 chimeric rabbit/human IgG antibody (antibody, V domains shown)
VH: QSVEESGGRLVTPGTPLTLTCTVSGFSLSSYAMSWVRQAPGRGLEWIGIIYASGSTYYASWAKGRFTISKTSTTVDLKITSPTTEDTATYFCARIYDGMDLWGPGTLVTVSS
VL: DIVMTQTPASVSAAVGGTVTINCQASQNIYSYLSWYQQKPGQPPKRLIYLASTLASGVPSRFKSSGSGTEYTLTISDLECDDAATYYCQSNYNGNYGFGGGTEVEVKR
notes: as for B1
B5: 330F11 (antibody, V domains shown)
VH: QSVEESGGRLVTPGTPLTLTCTVSGFSLNNYWMSWVRQAPGEGLEWIGTISSGAYTWFATWATGRFTISKTSTTVDLSITSPTTEDTATYFCARYSSTTDWTYFNIWGPGTLVTVSS
VL: DVVMTQTPASVEAAVGGTVTIKCQASQSINNYLAWYQQKPGQPPKLLIYRASTLESGVPSRFKGSGSGTQFTLTISDLECADAATYYCQSYNGVGRTAFGGGTEVEFK
notes: chimeric counterpart m9; also called rabbit IgG of BCC well 330F11
B6: 323H7 (antibody, V domains shown)
VH: QEQLKESGGGLVTPGGTLTLTCTASGFTISRYHMTWVRQAPGKGLEWIGHIYVNNDDTDYASWAKGRFTISKTSTTVDLKITSPTTEDTATYFCARLDVGGGGAYIGDIWGQGTLVTVSS
VL: QAVVTQTPSSVSAAVGGTVTISCQSSQSVYNNNDLAWYQQKPGQPPKLLIYYASTLASGVSSRFKGSGSGTQFTLAISDLECDDSATYYCAGGYDTDGLDTFAFGGGTEVEVK
notes: chimeric counterpart m3; also called rabbit IgG of BCC well 323H7
B7: 324C7 (antibody, V domains shown)
VH: QSVEESGGRLVTPGTPLTLTCTVSGFSLSGAGVSWVRQAPGKGLEWIGYIDSGATTYYASWAKGRFTISKASTTVDLKIASPTTEDTATYFCARGYYGMDPWGQGTLVTVSS
VL: DIVMTQTPASVEVAVGGTVTIKCQASQNIGSDLAWYQQKPGQPPKLLIYTTSNLASGVPSRFKGSGSGTGFTLTISDLECADAASYCCQGGYFSGRNIYGNAFGGGTEVVVK
notes: chimeric counterpart m4; also called rabbit IgG of BCC well 324C7
B8: 324C6 (antibody, V domains shown)
VH: B2 VH
VL: DVVMTQTPASVEAAVGGTVTIKCQASQSIDSWLSWYQQKPGQPPKLLIYQASTLASGVSSRFKGSGSGTEFTLTISDLECADAATYYCQCAYGVSGTSSYLYTFGGGTEVEVK
notes: chimeric counterpart m7; also called rabbit IgG of BCC well 324C6
B9: 338H4 (antibody, V domains shown)
VH: B4 VH
VL: DIVMTQTPASVSAAVGGTVTINCQASQNIYSYLSWYQQKPGQPPKRLIYLASTLASGVPSRFKSSGSGTEYTLTISDLECDDAATYYCQSNYNGNYGFGGGTEVEVK
notes: chimeric counterpart m8; also called rabbit IgG of BCC well 338H4
B10: 324E2 humanized antibody (antibody, human IgG1, kappa, V domains shown)
VH: QSVEESGGGLVQPGGSLRLSCTASGFSLSNNAITWVRQAPGKGLEYIGIISSSGTTYYASSAKGRFTISKDTSKNTVDLQMNSLRAEDTAVYYCAGAFSVWGQGTLVTVSS
VL: DIQMTQSPSSLSASVGDRVTITCQSSQSVNNNDLAWYQQKPGKAPKRLIYWASKLASGVPSRFSGSGSGTEFTLTISNLQPEDFATYYCAGGYSGNIYGFGGGTKVEIKR
notes: Human gamma-1 and human kappa constant domains
B11: 323D10 humanized antibody (antibody, human IgG1, kappa, V domains shown)
VH: EVQLVESGGGLVQPGGSLRLSCTASGFSLSRNAMNWVRQAPGKGLEYIGYISTSGTTFYANSVKGRFTISKDNTKNTVDLQMNSLRAEDTAVYYCARDYNYAMDIWGQGTLVTVSS
VL: AIDLTQSPSTLSASVGGTITINCQASESISSWLAWYQQKPGKAPKLLIYETSKLASGVPSRFSGSGSGTEFTLTISSLQPDDFATYYCQSYYRINNIGYDNAFGGGTKVEIKR
notes: as for B10
B12: 226E12 humanized antibody (antibody, human IgG1, kappa, V domains shown)
VH: EVQLLESGGGLVQPGGSLRLSCAASGFSLSNYYMSWVRQAPGKGLEWIGAINADSDNTWYPSWVKGRFTISRDNSKNTLYLQMNSLRAEDTAVYYCARSVSNNFAEYNIWGQGTLVTVSS
VL: DIQMTQSPSSLSASVGDRVTITCQASQRIYSYLAWYQQKPGKVPKLLIYRASTLASGVPSRFSGSGSGTDFTLTISSLQPEDVATYYCQQGASMVDVENMFGGGTKVEIKR
notes: as for B10
B13: 330F11 humanized antibody (antibody, human IgG1, kappa, V domains shown)
VH: EVQLVESGGGLVQPGGSLRLSCAASGFSLNNYWMSWVRQAPGKGLEWIGTISSGAYTWFATWATGRFTISRDNSKNTLYLQMNSLRAEDTAVYYCARYSSTTDWTYFNIWGQGTLVTVSS
VL: DIQMTQSPSTLSASVGDRVTITCQASQSINNYLAWYQQKPGKAPKLLIYRASTLESGVPSRFSGSGSGTEFTLTISSLQPDDFATYYCQSYNGVGRTAFGGGTKVEIKR
notes: as for B10
B14: 338H4 humanized antibody (antibody, human IgG1, kappa, V domains shown)
VH: EVQLVESGGGLVQPGGSLRLSCTASGFSLSSYAMSWVRQAPGRGLEWIGIIYASGSTYYASSAKGRFTISKDNTKNTVDLQMNSLRAEDTAVYYCARIYDGMDLWGQGTLVTVSS
VL: DIQMTQSPSSLSASVGDRVTINCQASQNIYSYLSWYQQKPGKVPKRLIYLASTLASGVPSRFSGSGSGTDYTLTISSLQPEDVATYYCQSNYNGNYGFGGGTKVEIKR
notes: as for B10
B15: 324C6 humanized antibody (antibody, human IgG1, kappa, V domains shown)
VH: QSLVESGGGLVQPGGSLRLSCTASGFSLSRYYMTWVRQAPGKGLEWIGTIYTSGSTWYASWTKGRFTISKDNTKNTVDLQMNSLRAEDTAVYYCARSYYGGDKTGLGIWGQGTLVTVSS
VL: DIQMTQSPSTLSASVGDRVTITCQASQSIDSWLSWYQQKPGKAPKLLIYQASTLASGVPSRFSGSGSGTEFTLTISSLQPDDFATYYCQSAYGVSGTSSYLYTFGGGTKVEIKR
notes: as for B10
B16: 323H7 humanized antibody (antibody, human IgG1, kappa, V domains shown)
VH: EVQLLESGGGLVQPGGSLRLSCAASGFTISRYHMTWVRQAPGKGLEWIGHIYVNNDDTDYASSAKGRFTISRDNSKNTLYLQMNSLRAEDTATYFCARLDVGGGGAYIGDIWGQGTLVTVSS
VL: DIQMTQSPSSLSASVGDRVTITCQSSQSVYNNNDLAWYQQKPGKVPKLLIYYASTLASGVPSRFSGSGSGTDFTLTISSLQPEDVATYYCAGGYDTDGLDTFAFGGGTKVEIKR
notes: as for B10

Each binder was assayed against T1, Human ROR2 (human, UniProt Q01974) (assay: Octet).
T1 sequence (Q01974 34-403 limits assumed): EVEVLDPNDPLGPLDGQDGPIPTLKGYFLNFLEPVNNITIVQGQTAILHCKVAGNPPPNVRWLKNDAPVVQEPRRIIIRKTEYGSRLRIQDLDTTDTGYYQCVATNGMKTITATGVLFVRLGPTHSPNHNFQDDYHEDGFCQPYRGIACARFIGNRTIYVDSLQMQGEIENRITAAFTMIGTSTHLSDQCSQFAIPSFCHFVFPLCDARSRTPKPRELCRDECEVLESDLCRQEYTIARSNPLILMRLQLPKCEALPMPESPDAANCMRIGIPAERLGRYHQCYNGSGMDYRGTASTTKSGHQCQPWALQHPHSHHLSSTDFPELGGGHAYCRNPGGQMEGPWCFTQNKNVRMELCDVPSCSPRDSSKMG

Row | binding result | Binder
1 | no binding | B1
2 | no binding | B2
3 | no binding | B3
4 | no binding | B4

Each binder was assayed against T2, human ROR1 'Frizzled-Kringle domain' (human, UniProt Q01973) (assay: Octet).
T2 construct: used plain or biotinylated
T2 sequence (Q01973 165-406 limits assumed): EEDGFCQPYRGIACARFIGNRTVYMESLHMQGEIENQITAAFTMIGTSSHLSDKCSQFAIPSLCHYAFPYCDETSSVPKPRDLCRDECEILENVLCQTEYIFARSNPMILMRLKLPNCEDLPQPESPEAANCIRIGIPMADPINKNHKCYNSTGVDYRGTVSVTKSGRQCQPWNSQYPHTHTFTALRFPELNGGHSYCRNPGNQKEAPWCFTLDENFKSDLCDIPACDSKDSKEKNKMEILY

Row | binding result | Binder
5 | no binding | B1
6 | no binding | B3

Each binder was assayed against T3, Human ROR1-CHO cells (human, UniProt Q01973) (assay: FACS; BCC supernatant).
T3 construct: expressed on the surface of CHO cells; also called human ROR1 on CHO cells
T3 sequence (Q01973 30-937 limits assumed): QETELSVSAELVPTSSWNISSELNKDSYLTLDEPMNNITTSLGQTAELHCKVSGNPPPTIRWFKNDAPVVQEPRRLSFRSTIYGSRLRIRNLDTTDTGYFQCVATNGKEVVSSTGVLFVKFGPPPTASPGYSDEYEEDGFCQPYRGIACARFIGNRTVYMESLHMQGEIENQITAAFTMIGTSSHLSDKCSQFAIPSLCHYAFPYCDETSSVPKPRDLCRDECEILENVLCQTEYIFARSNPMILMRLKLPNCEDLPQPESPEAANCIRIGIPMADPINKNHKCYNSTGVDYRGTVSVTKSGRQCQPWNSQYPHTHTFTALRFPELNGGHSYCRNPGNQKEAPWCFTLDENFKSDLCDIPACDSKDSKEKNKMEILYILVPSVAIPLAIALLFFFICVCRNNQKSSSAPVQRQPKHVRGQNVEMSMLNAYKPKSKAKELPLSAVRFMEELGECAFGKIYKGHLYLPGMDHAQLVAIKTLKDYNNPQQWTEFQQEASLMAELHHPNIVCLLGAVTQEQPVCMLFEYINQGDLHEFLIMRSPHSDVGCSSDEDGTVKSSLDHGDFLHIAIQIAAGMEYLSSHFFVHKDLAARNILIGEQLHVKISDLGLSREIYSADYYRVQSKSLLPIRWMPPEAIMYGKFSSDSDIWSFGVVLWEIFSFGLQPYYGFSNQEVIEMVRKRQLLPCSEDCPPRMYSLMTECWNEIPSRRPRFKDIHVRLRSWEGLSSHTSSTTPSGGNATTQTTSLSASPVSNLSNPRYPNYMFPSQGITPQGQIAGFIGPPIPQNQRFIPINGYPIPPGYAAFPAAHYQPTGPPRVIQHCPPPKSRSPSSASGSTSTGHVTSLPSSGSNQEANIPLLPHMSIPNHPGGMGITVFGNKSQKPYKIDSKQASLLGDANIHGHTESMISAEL

Row | FACS MFI [MFI] | Binder
7 | 5 | B5
8 | 90 | B6
9 | 190 | B7

What follows are binders tested against T1, Human ROR2 (assay: ELISA, direct coat; BCC supernatant).

Row | ELISA OD450 [OD450] | Binder
10 | 0.25 | B5
11 | 0.18 | B6
12 | 0.17 | B8
13 | 0.18 | B7
14 | 0.17 | B9

Each binder was assayed against T2, human ROR1 'Frizzled-Kringle domain' (assay: ELISA, direct coat; BCC supernatant).

Row | ELISA OD450 [OD450] | Binder
15 | 1.98 | B5
16 | 0.16 | B6
17 | 0.13 | B7
18 | 3.01 | B9

What follows are binders tested against T4, human ROR1 'Ig-Frizzled domain' (human, UniProt Q01973) (assay: ELISA, direct coat; BCC supernatant).
T4 construct: used plain or biotinylated
T4 sequence (Q01973 30-305 limits assumed): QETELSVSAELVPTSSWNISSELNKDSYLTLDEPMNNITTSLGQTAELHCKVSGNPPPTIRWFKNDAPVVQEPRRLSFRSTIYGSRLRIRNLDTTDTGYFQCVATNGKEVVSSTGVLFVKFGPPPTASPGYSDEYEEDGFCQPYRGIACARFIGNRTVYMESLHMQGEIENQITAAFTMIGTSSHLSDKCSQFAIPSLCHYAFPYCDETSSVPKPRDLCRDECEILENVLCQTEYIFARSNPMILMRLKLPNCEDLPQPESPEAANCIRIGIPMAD

Row | ELISA OD450 [OD450] | Binder
19 | 0.28 | B5
20 | 1.67 | B6
21 | 2.46 | B7
22 | 2.77 | B9

Each binder was assayed against T5, recombinant human ROR1 extracellular domain protein (human, UniProt Q01973 30-406) (assay: ELISA, direct coat; BCC supernatant).
T5 construct: extracellular domain; Analyte in solution in the Octet assay; also called human ROR1 ECD
T5 sequence (Q01973 30-406): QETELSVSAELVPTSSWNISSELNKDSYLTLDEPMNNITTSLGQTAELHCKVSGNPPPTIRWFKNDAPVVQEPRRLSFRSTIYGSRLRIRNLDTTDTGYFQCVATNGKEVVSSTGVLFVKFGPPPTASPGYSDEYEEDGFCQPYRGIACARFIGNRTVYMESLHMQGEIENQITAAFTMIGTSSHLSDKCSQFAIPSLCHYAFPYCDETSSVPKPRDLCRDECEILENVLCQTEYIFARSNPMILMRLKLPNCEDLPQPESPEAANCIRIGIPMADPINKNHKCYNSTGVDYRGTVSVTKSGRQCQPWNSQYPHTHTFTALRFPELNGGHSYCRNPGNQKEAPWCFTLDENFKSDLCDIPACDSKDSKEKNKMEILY

Row | ELISA OD450 [OD450] | Binder
23 | 0.98 | B5
24 | 1.82 | B6
25 | 2.74 | B7
26 | 4 | B9

The binders below were run against mouse ROR1 (serum titer ELISA antigen) (mouse, UniProt Q9Z139 30-403, limits assumed) (assay: ELISA, direct coat; BCC supernatant).
Chain of mouse ROR1 (serum titer ELISA antigen) (Q9Z139 30-403 limits assumed): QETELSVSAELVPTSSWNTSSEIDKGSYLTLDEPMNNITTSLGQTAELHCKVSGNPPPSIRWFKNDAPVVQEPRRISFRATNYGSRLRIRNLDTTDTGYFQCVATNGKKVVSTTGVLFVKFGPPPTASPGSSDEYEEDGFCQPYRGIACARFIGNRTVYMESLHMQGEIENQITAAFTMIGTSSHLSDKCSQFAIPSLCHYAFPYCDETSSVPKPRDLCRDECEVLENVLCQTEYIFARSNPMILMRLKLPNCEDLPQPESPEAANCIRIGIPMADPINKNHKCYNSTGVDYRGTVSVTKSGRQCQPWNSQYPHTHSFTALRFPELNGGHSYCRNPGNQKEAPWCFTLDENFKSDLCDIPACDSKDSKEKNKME

Row | ELISA OD450 [OD450] | binding result | Binder
27 | 4 | – | B5
28 | 0.2 | no binding | B6
29 | 0.21 | no binding | B7
30 | 4 | – | B9

What follows are binders tested against T5, recombinant human ROR1 extracellular … (assay: Octet, bi-valent binding to human ROR1).

Row | koff [s⁻¹] | Binder
31 | 0.00961 | B1
32 | 0.00572 | B3

The binders below were run against T5, recombinant human ROR1 extracellular … (assay: Octet, monovalent binding to human ROR1).

Row | koff [s⁻¹] | Binder
33 | 0.0061 | B10
34 | 0.00424 | B11
35 | 0.0415 | B12
36 | 0.0297 | B13
37 | 0.00238 | B14
38 | 0.0403 | B15
39 | 0.0007 | B16

What follows are binders tested against T5, recombinant human ROR1 extracellular … (assay: Octet, mono-valent binding to human ROR1).
Excerpt: The heavy and light chain expression plasmids generated from each well were transiently co-transfected to produce rabbit/human chimeric antibodies. Recombinant antibody supernatants were confirmed to contain anti-ROR1 antibodies using bio-layer interferometry analysis on a ForteBio Octet Red 96 instrument. Anti-human Fc biosensors (Pall ForteBio) were used to capture antibodies in the supernatants. Association to ROR1 was observed by real-time interferometry by placing the biosensors in wells containing recombinant human ROR1 extracellular domain protein. Dissociation was measured after transfer of the biosensors into wells containing 10× kinetics buffer (Pall ForteBio). The software provided by the manufacturer was used to analyze the interferometry data.

Row | koff [s⁻¹] | Binder
40 | 1.17e-08 | B4

What follows are binders tested against T2, human ROR1 'Frizzled-Kringle domain' (assay: ELISA, biotinylated antigen on avidin plate; BCC supernatant).

Row | ELISA OD450 [OD450] | Binder
41 | 1.71 | B5
42 | 0.16 | B6
43 | 0.13 | B7
44 | 1.8 | B9

The binders below were run against T4, human ROR1 'Ig-Frizzled domain' in the same assay as above.

Row | ELISA OD450 [OD450] | Binder
45 | 0.15 | B5
46 | 1.78 | B6
47 | 2.67 | B7
48 | 0.22 | B9
